Earlier results in publication PMC3045386.

Target: Ran (Homo sapiens) (UniProt P62826)

- Kd: 10 µM
Substance: RanBP3 (from UniProt Q9H6Z4)
